Results on one substance are retold here after paper PMC10655381.

The experiment has as its target recombinant glycerol dehydratase 2eGDHt αβγ heterotrimer from Klebsiella pneumoniae 2e (Klebsiella pneumoniae 2e) (UniProt Q59476). Kind of experiment: native gel or EMSA; Native-PAGE of purified recombinant 2eGDHt; heterotrimer to dimer of heterotrimers.

Consider “recombinant glycerol dehydratase 2eGDHt αβγ heterotrimer from Klebsiella pneumoniae 2e (from UniProt Q59476 1-555; A6TE99 1-194; Q59475 1-141) (complex)”, for which the stoichiometry N turned out to be 2.
